Assay results from patent US20140087991A1, “PEPTIDE PRODRUGS” (The Johns Hopkins University, priority 2006, published 2014).

Biological target: T1, FAP (Homo sapiens, UniProt Q12884)
T1 construct: the extracellular domain of FAP was cloned with a His-6 tag; made in house
T1 sequence (Q12884 26-760 limits assumed): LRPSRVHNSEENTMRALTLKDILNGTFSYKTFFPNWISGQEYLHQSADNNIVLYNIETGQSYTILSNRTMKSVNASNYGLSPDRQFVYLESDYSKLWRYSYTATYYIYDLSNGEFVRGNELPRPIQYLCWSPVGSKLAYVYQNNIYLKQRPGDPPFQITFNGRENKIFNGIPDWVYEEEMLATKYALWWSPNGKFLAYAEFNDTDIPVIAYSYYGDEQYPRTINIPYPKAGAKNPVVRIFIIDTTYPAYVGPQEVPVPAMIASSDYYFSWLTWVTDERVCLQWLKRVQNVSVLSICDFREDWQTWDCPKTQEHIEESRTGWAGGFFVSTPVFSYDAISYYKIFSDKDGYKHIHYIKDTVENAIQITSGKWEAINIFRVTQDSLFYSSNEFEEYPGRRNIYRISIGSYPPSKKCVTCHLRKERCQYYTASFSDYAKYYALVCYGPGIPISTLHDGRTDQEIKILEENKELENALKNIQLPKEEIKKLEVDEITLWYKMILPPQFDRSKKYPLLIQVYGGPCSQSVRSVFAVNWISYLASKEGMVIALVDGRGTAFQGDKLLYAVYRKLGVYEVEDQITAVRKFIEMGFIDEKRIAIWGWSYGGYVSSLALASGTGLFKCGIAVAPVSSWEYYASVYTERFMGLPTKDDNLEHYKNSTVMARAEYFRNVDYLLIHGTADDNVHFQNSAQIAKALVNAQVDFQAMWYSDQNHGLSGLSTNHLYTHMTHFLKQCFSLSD
Test: LC-MS/MS cleavage map of FAP digest of 100 kDa recombinant human gelatin
Format: biochemical
Details: 100 kDa gelatin digest; for Percentage: share of all occurrences
Experimental: Human collagen I (Becton Dickinson, Franklin Lakes, N.J.) and recombinant human gelatins of 100 KDa and 8.5 KDa (Fibrogen, San Francisco, Calif.) were dissolved in reaction buffer to a final concentration of 100-300 μg/ml. 0.5-1 μg of FAP was added per 100 μgs of protein substrate. Digestion was done for 4-6 hrs at 37° C. As a positive control trypsin digestion was used. As a negative control, protein solutions were incubated either with BSA or buffer only. Peptide fragments of a size <30 KDa were purified using 30 KDa Microcon spin filter (Millipore, Billerica, Mass.).
Peptides obtained from FAP/gelatin digests were dried using a speedvac (Eppendorf), resuspended in LC/MS loading buffer (3% ACN, 0.1% formic acid), and analyzed using nano-flow LC/MS/MS on an Agilent 1100 series nano-LC system (Agilent) coupled to an LCQ Duo ion trap mass spectrometer (ThermoFinnigan). Peptides were pre-concentrated on a 5 mm Zorbax C18 trap column (Agilent) and then eluted onto a 100×0.075 mm custom-packed Biobasic C18 (ThermoElectron) reversed phase capillary column connected to a laser-pulled electrospray ionization emitter tip (New Objective) at a flowrate of 300 nl/min Peptides were eluted the nanospray source of the LCQ (Proxeon, Denmark) using the following gradient: 0% B at 0 min, 5% B at 8 min, 45% B at 50 min, 90% B at 55 min, 90% B at 60 min (B=0.1% formic acid in acetonitrile) at a spray voltage of 2.5 kV. The LCQ was operated in data-dependent mode using the Xcalibur software (ThermoFinnigan) in which every MS scan (400-1800 m/z) was followed by MS/MS scans (400-1800 m/z) on the 3 most intense ions using an isolation window of ±1.5 Da. Ions selected for MS/MS fragmentation were dynamically excluded for 30 s.
MS/MS data were searched against a collagen FASTA database using the SEQUEST search algorithm built into the Bioworks Browser (ThermoFinnigan) allowing for the variable modification of Methionine oxidation. Peptides were initially filtered in a charge dependent manner using an XCorr filter of 1.5, 2, and 2.5 for singly, doubly, and triply charged peptides. All MS/MS spectra used to identify peptides were manually inspected for validation of y and b-ion series. To quantify the relative abundance of each identified peptide we compared the ion current for each of the observed peptide parent ions from the MS spectra. The contribution of each parent ion to the total ion current was extracted and integrated over the peptide elution peak.
To resolve each particular mass fragment a Liquid Chromatograpy (LC) and Tandem mass spectroscopy (MS-MS) [LC-MS-MS] method was developed. Using this method, peptide fragments from FAP digests of the 8.5 kDa and 100 kDa recombinant gelatin were time-resolved by nano reverse phase LC (FIGS. 12 and 14) and then sequenced using an ion trap mass spectrometer operating in MS/MS mode. Initial methodological issues were worked out using the 8.5 kDa fragment before analyzing the entire 100 kDa protein. MS/MS spectra were searched against the 8.5 kDa and 100 kDa gelatin sequences using the SEQUEST algorithm with no cleavage specificity. Most of the identified cleavage sites in both sized gelatins occurred after Proline. However, FAP cleavage sites in these gelatins were not restricted to Proline alone. FAP was also found to cleave after Ala (e.g. A/A, A/G, A/P, A/R), Asp (e.g. D/G, D/T), Gly (e.g. G/A, G/E, G/L, G/Q, G/P, G/V), Glu (i.e., E/P), Lys (i.e., K/A, K/G), Ser (e.g. S/P) and Val (e.g. V/G).
To identify the most preferentially cleaved sites, we relatively quantified the abundance of each of the identified peptides by integrating the ion current generated by each peptide throughout the chromatogram. After identification of a peptide from a MS/MS spectrum, we extracted the ion current for the parent mass of the ion from the total MS ion chromatogram using a 1.5 Da tolerance window, and then integrated under the peak (FIGS. 12 and 14). […]

Substance | Occurences | Percentage
A.AGRVGPPGP.S: FAP cleavage fragment, 100 kDa recombinant human gelatin | 2 | 0.95
A.GPAGPPGP.I: FAP cleavage fragment, 100 kDa recombinant human gelatin | 1 | 0.48
A.PGDKGESGP.S: FAP cleavage fragment, 100 kDa recombinant human gelatin | 2 | 0.95
D.GRPGPPGPPGARGQAG.V: FAP cleavage fragment, 100 kDa recombinant human gelatin | 2 | 0.95
G.PPGPAGAPGDK.G: FAP cleavage fragment, 100 kDa recombinant human gelatin | 2 | 0.95
G.PPGPAGAPGDKGESGP.S: FAP cleavage fragment, 100 kDa recombinant human gelatin | 3 | 1.43
G.PSGEPGKQGPSGASGERGPPGP.M: FAP cleavage fragment, 100 kDa recombinant human gelatin | 1 | 0.48
P.AGEKGSPGADGPAGAPGTPGP.Q: FAP cleavage fragment, 100 kDa recombinant human gelatin | 7 | 3.33
P.AGFAGPPGADGQPGAKGEPGDAGAKGDAGPPGP.A: FAP cleavage fragment, 100 kDa recombinant human gelatin | 8 | 3.81
P.AGNPGADGQPGAKGANGAPGIAGAPGFPGARGP.S: FAP cleavage fragment, 100 kDa recombinant human gelatin | 4 | 1.90
P.AGPPGEAGKPGEQGVPGDLGAPGP.S: FAP cleavage fragment, 100 kDa recombinant human gelatin | 6 | 2.86
P.AGPPGPIGNVGAPGAKGARGSAGPPGATGFPGAAGRVGPPGP.S: FAP cleavage fragment, 100 kDa recombinant human gelatin | 3 | 1.43
P.AGRPGEVGPPGPPGP.A: FAP cleavage fragment, 100 kDa recombinant human gelatin | 11 | 5.24
P.GGPPGPKGNSGEPGAPGSKGD.T: FAP cleavage fragment, 100 kDa recombinant human gelatin | 1 | 0.48
P.IGPPGPAGAPGDKGESGP.S: FAP cleavage fragment, 100 kDa recombinant human gelatin | 6 | 2.86

The next lines start with the values.

Occurences | Percentage | Substance
1 | 0.48 | A.GPPGAPGAPGAPGP.V: FAP cleavage fragment, 100 kDa recombinant human gelatin
4 | 1.90 | A.PGAPGAPGPVGPAGKSGDRGETGP.A: FAP cleavage fragment, 100 kDa recombinant human gelatin
2 | 0.95 | A.PGAPGPVGPAGKSGDRGETGP.A: FAP cleavage fragment, 100 kDa recombinant human gelatin
1 | 0.48 | A.PGPVGPAGKSGDRGETGP.A: FAP cleavage fragment, 100 kDa recombinant human gelatin
2 | 0.95 | D.GQPGAKGEPGDAGAKGDAGPPGP.A: FAP cleavage fragment, 100 kDa recombinant human gelatin
5 | 2.38 | E.PGKQGPSGASGERGPPGP.M: FAP cleavage fragment, 100 kDa recombinant human gelatin
2 | 0.95 | G.PPGADGQPGAKGEPGDAGAKGDAGPPGP.A: FAP cleavage fragment, 100 kDa recombinant human gelatin
7 | 3.33 | G.PPGAPGAPGAPGPVGPAGKSGDRGETGP.A: FAP cleavage fragment, 100 kDa recombinant human gelatin
1 | 0.48 | G.PPGPAGPAGPPGP.I: FAP cleavage fragment, 100 kDa recombinant human gelatin
6 | 2.86 | G.PTGARGAPGDRGEPGPPGP.A: FAP cleavage fragment, 100 kDa recombinant human gelatin
1 | 0.48 | P.AGPKGEPGSPGENGAPG.Q: FAP cleavage fragment, 100 kDa recombinant human gelatin
8 | 3.81 | P.AGPPGAPGAPGAPGP.V: FAP cleavage fragment, 100 kDa recombinant human gelatin
2 | 0.95 | P.AGPPGAPGAPGAPGPVGP.A: FAP cleavage fragment, 100 kDa recombinant human gelatin
6 | 2.86 | P.AGPPGAPGAPGAPGPVGPAGKSGDRGETGP.A: FAP cleavage fragment, 100 kDa recombinant human gelatin
2 | 0.95 | P.AGPPGFPGAVGAKGEAGP.Q: FAP cleavage fragment, 100 kDa recombinant human gelatin
6 | 2.86 | P.AGPTGARGAPGDRGEPGPPGP.A: FAP cleavage fragment, 100 kDa recombinant human gelatin
1 | 0.48 | P.GPPGAPGP.Q: FAP cleavage fragment, 100 kDa recombinant human gelatin
1 | 0.48 | P.GPSGNAGPPGPP.G: FAP cleavage fragment, 100 kDa recombinant human gelatin
1 | 0.48 | P.KGAAGEPGKAGERGVPGPPGAVGPAGKDGEAGAQGPPGP.A: FAP cleavage fragment, 100 kDa recombinant human gelatin
2 | 0.95 | P.PGAPGAPGAPGPVGPAGKSGDRGETGP.A: FAP cleavage fragment, 100 kDa recombinant human gelatin
